Experimental data reported in publication PMC11574045, “A cofactor-induced repressive type of transcription factor condensation can be induced by synthetic peptides to suppress tumorigenesis” (The EMBO Journal, 2024).

B1: XBP1 (protein, UniProt P17861 1-261, looked up)
X-box-binding protein 1: MVVVAAAPNPADGTPKVLLLSGQPASAAGAPAGQALPLMVPAQRGASPEAASGGLPQARKRQRLTHLSPEEKALRRKLKNRVAAQTARDRKKARMSELEQQVVDLEEENQKLLLENQLLREKTHGLVVENQELRQRLGMDALVAEEEAEAKGNEVRPVAGSAESAALRLRAPLQQVQAQLSPLQNISPWILAVLTLQIQSLISCWAFWTTWTQSCSSNALPQSLPAWRSSQRSTQKDPVPYQPPFLCQWGRHQPSWKPLMN
B2: ZBTB37 (protein, UniProt Q5TC79 1-503, looked up)
Zinc finger and BTB …: MEKGGNIQLEIPDFSNSVLSHLNQLRMQGRLCDIVVNVQGQAFRAHKVVLAASSPYFRDHMSLNEMSTVSISVIKNPTVFEQLLSFCYTGRICLQLADIISYLTAASFLQMQHIIDKCTQILEGIHFKINVAEVEAELSQTRTKHQERPPESHRVTPNLNRSLSPRHNTPKGNRRGQVSAVLDIRELSPPEESTSPQIIEPSSDVESREPILRINRAGQWYVETGVADRGGRSDDEVRVLGAVHIKTENLEEWLGPENQPSGEDGSSAEEVTAMVIDTTGHGSVGQENYTLGSSGAKVARPTSSEVDRFSPSGSVVPLTERHRARSESPGRMDEPKQPSSQVEESAMMGVSGYVEYLREQEVSERWFRYNPRLTCIYCAKSFNQKGSLDRHMRLHMGITPFVCRMCGKKYTRKDQLEYHIRKHTGNKPFHCHVCGKSFPFQAILNQHFRKNHPGCIPLEGPHSISPETTVTSRGQAEEESPSQEETVAPGEAVQGSVSTTGPD
B3: C16orf5 (protein, UniProt Q9H305 1-208, looked up)
Cell death-inducing …: MSSEPPPPYPGGPTAPLLEEKSGAPPTPGRSSPAVMQPPPGMPLPPADIGPPPYEPPGHPMPQPGFIPPHMSADGTYMPPGFYPPPGPHPPMGYYPPGPYTPGPYPGPGGHTATVLVPSGAATTVTVLQGEIFEGAPVQTVCPHCQQAITTKISYEIGLMNFVLGFFCCFMGCDLGCCLIPCLINDFKDVTHTCPSCKAYIYTYKRLC
B4: USP49 (protein, UniProt Q70CQ1 1-688, looked up)
Ubiquitin carboxyl-terminal …: MDRCKHVGRLRLAQDHSILNPQKWCCLECATTESVWACLKCSHVACGRYIEDHALKHFEETGHPLAMEVRDLYVFCYLCKDYVLNDNPEGDLKLLRSSLLAVRGQKQDTPVRRGRTLRSMASGEDVVLPQRAPQGQPQMLTALWYRRQRLLARTLRLWFEKSSRGQAKLEQRRQEEALERKKEEARRRRREVKRRLLEELASTPPRKSARLLLHTPRDAGPAASRPAALPTSRRVPAATLKLRRQPAMAPGVTGLRNLGNTCYMNSILQVLSHLQKFRECFLNLDPSKTEHLFPKATNGKTQLSGKPTNSSATELSLRNDRAEACEREGFCWNGRASISRSLELIQNKEPSSKHISLCRELHTLFRVMWSGKWALVSPFAMLHSVWSLIPAFRGYDQQDAQEFLCELLHKVQQELESEGTTRRILIPFSQRKLTKQVLKVVNTIFHGQLLSQVTCISCNYKSNTIEPFWDLSLEFPERYHCIEKGFVPLNQTECLLTEMLAKFTETEALEGRIYACDQCNSKRRKSNPKPLVLSEARKQLMIYRLPQVLRLHLKRFRWSGRNHREKIGVHVVFDQVLTMEPYCCRDMLSSLDKETFAYDLSAVVMHHGKGFGSGHYTAYCYNTEGGFWVHCNDSKLNVCSVEEVCKTQAYILFYTQRTVQGNARISETHLQAQVQSSNNDEGRPQTFS
B5: C1D (protein, UniProt Q13901 1-141, looked up)
Nuclear nucleic acid-binding …: MAGEEINEDYPVEIHEYLSAFENSIGAVDEMLKTMMSVSRNELLQKLDPLEQAKVDLVSAYTLNSMFWVYLATQGVNPKEHPVKQELERIRVYMNRVKEITDKKKAGKLDRGAASRFVKNALWEPKSKNASKVANKGKSKS
B6: ZBTB21 (protein, UniProt Q9ULJ3 1-1066, looked up)
Zinc finger and BTB …: MEGLLHYINPAHAISLLSALNEERLKGQLCDVLLIVGDQKFRAHKNVLAASSEYFQSLFTNKENESQTVFQLDFCEPDAFDNVLNYIYSSSLFVEKSSLAAVQELGYSLGISFLTNIVSKTPQAPFPTCPNRKKVFVEDDENSSQKRSVIVCQSRNEAQGKTVSQNQPDVSHTSRPSPSIAVKANTNKPHVPKPIEPLHNLSLTEKSWPKDSSVVYAKSLEHSGSLDDPNRISLVKRNAVLPSKPLQDREAMDDKPGVSGQLPKGKALELALKRPRPPVLSVCSSSETPYLLKETNKGNGQGEDRNLLYYSKLGLVIPSSGSGSGNQSIDRSGPLVKSLLRRSLSMDSQVPVYSPSIDLKSSQGSSSVSSDAPGNVLCALSQKSSLKDCSEKTALDDRPQVLQPHRLRSFSASQSTDREGASPVTEVRIKTEPSSPLSDPSDIIRVTVGDAATTAAASSSSVTRDLSLKTEDDQKDMSRLPAKRRFQADRRLPFKKLKVNEHGSPVSEDNFEEGSSPTLLDADFPDSDLNKDEFGELEGTRPNKKFKCKHCLKIFRSTAGLHRHVNMYHNPEKPYACDICHKRFHTNFKVWTHCQTQHGIVKNPSPASSSHAVLDEKFQRKLIDIVREREIKKALIIKLRRGKPGFQGQSSSQAQQVIKRNLRSRAKGAYICTYCGKAYRFLSQFKQHIKMHPGEKPLGVNKVAKPKEHAPLASPVENKEVYQCRLCNAKLSSLLEQGSHERLCRNAAVCPYCSLRFFSPELKQEHESKCEYKKLTCLECMRTFKSSFSIWRHQVEVHNQNNMAPTENFSLPVLDHNGDVTGSSRPQSQPEPNKVNHIVTTKDDNVFSDSSEQVNFDSEDSSCLPEDLSLSKQLKIQVKEEPVEEAEEEAPEASTAPKEAGPSKEASLWPCEKCGKMFTVHKQLERHQELLCSVKPFICHVCNKAFRTNFRLWSHFQSHMSQASEESAHKESEVCPVPTNSPSPPPLPPPPPLPKIQPLEPDSPTGLSENPTPATEKLFVPQESDTLFYHAPPLSAITFKRQFMCKLCHRTFKTAFSLWSHEQTHN
B7: ZBTB17 (protein, UniProt Q13105 1-803, looked up)
Zinc finger and BTB …: MDFPQHSQHVLEQLNQQRQLGLLCDCTFVVDGVHFKAHKAVLAACSEYFKMLFVDQKDVVHLDISNAAGLGQVLEFMYTAKLSLSPENVDDVLAVATFLQMQDIITACHALKSLAEPATSPGGNAEALATEGGDKRAKEEKVATSTLSRLEQAGRSTPIGPSRDLKEERGGQAQSAASGAEQTEKADAPREPPPVELKPDPTSGMAAAEAEAALSESSEQEMEVEPARKGEEEQKEQEEQEEEGAGPAEVKEEGSQLENGEAPEENENEESAGTDSGQELGSEARGLRSGTYGDRTESKAYGSVIHKCEDCGKEFTHTGNFKRHIRIHTGEKPFSCRECSKAFSDPAACKAHEKTHSPLKPYGCEECGKSYRLISLLNLHKKRHSGEARYRCEDCGKLFTTSGNLKRHQLVHSGEKPYQCDYCGRSFSDPTSKMRHLETHDTDKEHKCPHCDKKFNQVGNLKAHLKIHIADGPLKCRECGKQFTTSGNLKRHLRIHSGEKPYVCIHCQRQFADPGALQRHVRIHTGEKPCQCVMCGKAFTQASSLIAHVRQHTGEKPYVCERCGKRFVQSSQLANHIRHHDNIRPHKCSVCSKAFVNVGDLSKHIIIHTGEKPYLCDKCGRGFNRVDNLRSHVKTVHQGKAGIKILEPEEGSEVSVVTVDDMVTLATEALAATAVTQLTVVPVGAAVTADETEVLKAEISKAVKQVQEEDPNTHILYACDSCGDKFLDANSLAQHVRIHTAQALVMFQTDADFYQQYGPGGTWPAGQVLQAGELVFRPRDGAEGQPALAETSPTAPECPPPAE
B8: VAX2 (protein, UniProt Q9UIW0 1-290, looked up)
Ventral anterior homeobox 2: MGDGGAERDRGPARRAESGGGGGRCGDRSGAGDLRADGGGHSPTEVAGTSASSPAGSRESGADSDGQPGPGEADHCRRILVRDAKGTIREIVLPKGLDLDRPKRTRTSFTAEQLYRLEMEFQRCQYVVGRERTELARQLNLSETQVKVWFQNRRTKQKKDQSRDLEKRASSSASEAFATSNILRLLEQGRLLSVPRAPSLLALTPSLPGLPASHRGTSLGDPRNSSPRLNPLSSASASPPLPPPLPAVCFSSAPLLDLPAGYELGSSAFEPYSWLERKVGSASSCKKANT
B9: ZBTB26 (protein, UniProt Q9HCK0 1-441, looked up)
Zinc finger and BTB …: MSERSDLLHFKFENYGDSMLQKMNKLREENKFCDVTVLIDDIEVQGHKIVFAAGSPFLRDQFLLNDSREVKISILQSSEVGRQLLLSCYSGVLEFPEMELVNYLTAASFLQMSHIVERCTQALWKFIKPKQPMDSKEGCEPQSASPQSKEQQGDARGSPKQDSPCIHPSEDSMDMEDSDIQIVKVESIGDVSEVRSKKDQNQFISSEPTALHSSEPQHSLINSTVENRVSEIEQNHLHNYALSYTGSDNIIMASKDVFGPNIRGVDKGLQWHHQCPKCTRVFRHLENYANHLKMHKLFMCLLCGKTFTQKGNLHRHMRVHAGIKPFQCKICGKTFSQKCSLQDHLNLHSGDKPHKCNYCDMVFAHKPVLRKHLKQLHGKNSFDNANERNVQDLTVDFDSFACTTVTDSKGCQPQPDATQVLDAGKLAQAVLNLRNDSTCVN
B10: ZBED2 (protein, UniProt Q9BTP6 1-218, looked up)
Zinc finger BED …: MMRREDEEEEGTMMKAKGDLEMKEEEEISETGELVGPFVSAMPTPMPHNKGTRFSEAWEYFHLAPARAGHHPNQYATCRLCGRQVSRGPGVNVGTTALWKHLKSMHREELEKSGHGQAGQRQDPRPHGPQLPTGIEGNWGRLLEQVGTMALWASQREKEVLRRERAVEWRERAVEKRERALEEVERAILEMKWKVRAEKEACQREKELPAAVHPFHFV
B11: WNT3A (protein, UniProt P56704 19-352, looked up)
Protein Wnt-3a: SYPIWWSLAVGPQYSSLGSQPILCASIPGLVPKQLRFCRNYVEIMPSVAEGIKIGIQECQHQFRGRRWNCTTVHDSLAIFGPVLDKATRESAFVHAIASAGVAFAVTRSCAEGTAAICGCSSRHQGSPGKGWKWGGCSEDIEFGGMVSREFADARENRPDARSAMNRHNNEAGRQAIASHMHLKCKCHGLSGSCEVKTCWWSQPDFRAIGDFLKDKYDSASEMVVEKHRESRGWVETLRPRYTYFKVPTERDLVYYEASPNFCEPNPETGSFGTRDRTCNVSSHGIDGCDLLCCGRGHNARAERRREKCRCVFHWCCYVSCQECTRVYDVHTCK
B12: VENTX (protein, UniProt O95231 1-258, looked up)
Homeobox protein VENTX: MRLSSSPPRGPQQLSSFGSVDWLSQSSCSGPTHTPRPADFSLGSLPGPGQTSGAREPPQAVSIKEAAGSSNLPAPERTMAGLSKEPNTLRAPRVRTAFTMEQVRTLEGVFQHHQYLSPLERKRLAREMQLSEVQIKTWFQNRRMKHKRQMQDPQLHSPFSGSLHAPPAFYSTSSGLANGLQLLCPWAPLSGPQALMLPPGSFWGLCQVAQEALASAGASCCGQPLASHPPTPGRPSLGPALSTGPRGLCAMPQTGDAF
B13: YAF2 (protein, UniProt Q8IY57 1-180, looked up)
YY1-associated factor 2: MGDKKSPTRPKRQPKPSSDEGYWDCSVCTFRNSAEAFKCMMCDVRKGTSTRKPRPVSQLVAQQVTQQFVPPTQSKKEKKDKVEKEKSEKETTSKKNSHKKTRPRLKNVDRSSAQHLEVTVGDLTVIITDFKEKTKSPPASSAASADQHSQSGSSSDNTERGMSRSSSPRGEASSLNGESH

System: HEK293FT cells transfected with TF library
Experiment: Screening of TF condensates based on fluorescent puncta
Type: cell-based
Settings: Figure 1B numerical data; TF library screen, one value per transcriptional factor
In short: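 Puncta scoring used automated confocal imaging of fifty random fields per well, after anti-Flag or anti-GAL4 immunofluorescence (Alexa 488) in PFA-fixed cells. HEK293FT cells carried TF library plasmids delivered with PEI (1.6 μg/ml DNA). At 60 h they were switched for 12 h to glucose-containing or glucose-free medium.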

Molecule	Z score of condensed fraction
B1	-0.3977
B2	0.3942
B3	3.145
B4	-0.174
B5	-0.3287
B6	-0.7871
B7	-0.2141
B8	-0.9394
B9	0.2152
B10	0.7838
B11	-0.5314
B12	-0.4099
B13	1.84
